The values that follow come from patent US20060216303A1 (published 2006).

The target in experiment [1] is T1, synthetic polypeptide 20-mer … of the breast mucin tandem repeat.
T1 construct: also called synthetic peptide started at the beginning of the 20 amino acid repeat
The experiment is described as follows: binding to synthetic 20-mer.

For experiment [2], the target named is T2, synthetic polypeptide 20-mer APPAHGVTSAPDTRPAPGST of the breast mucin tandem repeat.
T2 construct: also called synthetic peptide started in the middle of the repeat
T2 peptide: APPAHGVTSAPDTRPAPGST
In words: binding to synthetic 20-mer.

T1 sequence (peptide, as listed by the source): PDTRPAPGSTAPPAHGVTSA

B1: murine BrE-3 monoclonal antibody (antibody, V domains shown)
VH: EVKLEESGGGLVQPGGSMKLSCAASGFTFSDAWMDWVRQSPEKGLEWVAEIRNKANNHATYYDESVKGRFTISRDDSKSRVYLQMISLRAEDTGLYYCTGEFANWGQGTLVTVSA
VL: DVVMTQTPLSLPVSLGDQASISCRSSQNLVHNNGNTYLYWFLQKSGQSPKLLIYRASIRFSGVPDRFSGSGSETDFTLKISRVEAEDLGVYFCFQGTHVPWTFGGGTKLEIK
notes: Whole murine antibody; The entries are printed with a 19-residue leader; also called anti-BrE-3 murine antibody; murine BrE-3 antibody
For B1, the binding result in experiment [1] and in experiment [2] was “binds” throughout.
